# Data from PMC10449631 (Nature Chemical Biology, 2023).
# Values joined by “and” are separate entries in the source; they are usually repeats but may differ in a detail not shown here. Identical values can stand only once. No end group written: not given here.
# What was measured:
# [1] = target: T1, PaAP_T (P. aeruginosa aminopeptidase, C-terminal truncated) (Pseudomonas aeruginosa, UniProt Q02PA2); assay: Inhibition of PaAP_T in the Leu-pNA aminopeptidase assay (KI, IC50); format: biochemical; conditions: for IC50 plot data (PaAP_T activity at given peptide concentration): (S) = 2 mM, PaAP 100 nM
# T1 construct: PaAP (WT, residues 27–536); His6 (TEV cleavable) (N, cleaved yes); made in house; host or cells: E. coli SHuffle T7
# T1 sequence (Q02PA2 whole entry, looked up): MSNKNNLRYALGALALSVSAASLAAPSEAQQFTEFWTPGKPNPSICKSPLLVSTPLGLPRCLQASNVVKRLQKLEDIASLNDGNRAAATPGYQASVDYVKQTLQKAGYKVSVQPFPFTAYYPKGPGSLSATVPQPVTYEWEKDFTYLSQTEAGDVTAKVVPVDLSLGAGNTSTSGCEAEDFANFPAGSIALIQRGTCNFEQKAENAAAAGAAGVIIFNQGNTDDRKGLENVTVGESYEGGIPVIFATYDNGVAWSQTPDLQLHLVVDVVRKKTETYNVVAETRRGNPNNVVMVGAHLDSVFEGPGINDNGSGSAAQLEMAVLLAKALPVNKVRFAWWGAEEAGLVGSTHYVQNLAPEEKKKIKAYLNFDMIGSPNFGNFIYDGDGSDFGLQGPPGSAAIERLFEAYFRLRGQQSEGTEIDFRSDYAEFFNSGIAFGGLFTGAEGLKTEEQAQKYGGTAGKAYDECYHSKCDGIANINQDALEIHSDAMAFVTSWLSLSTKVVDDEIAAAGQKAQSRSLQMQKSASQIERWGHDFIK
# Procedure: Aminopeptidase activity was determined spectrophotometrically primarily using amino Leu-pNA. Other commercially available pNA substrates (isoleucine, methionine, alanine, valine, proline, arginine, lysine and phenylalanine) were also assayed. Leu-pNA was incubated with enzyme (100 nM) in assay buffer (50 mM Tris, pH 8.5, 200 mM NaCl) at 25 °C. A pNA release caused an absorbance increase at 405 nm, monitored using a BMG Labtech plate reader. […] Data were plotted in GraphPad Prism (version 9) and the Michalis Menten equation was used for fitting.
# Inhibition assays were carried out with the following peptides: linear-ERWGHDFIK (PaAP C-terminal residues), cyclic-ERWGHDFIK, N-acetylated and C-amidated ERWGHDFIK. IC50 values were determined by varying peptide concentration at a fixed substrate concentration (fixed at KM, (S) = 2 mM, PaAP concentration was 100 nM). […] KI values were determined by fitting the data to equation (1) (Morrison’s equation):1 v=1−Et+I+KI−Et+I+KI^2−4EtIKI/2Et where v is the velocity, Et is the total enzyme concentration, I is the concentration of inhibitor and KI is the equilibrium dissociation constant for the inhibitor. IC50 values increased when measured at increasing S, consistent with competitive inhibition.
# [2] = target: T2, PaAP (Pseudomonas aeruginosa, UniProt Q02PA2, A513L/Q514V/S515P); assay: Peptide digestion assay (overnight and time course, LC-MS/MALDI); format: biochemical; conditions: for substrate of / degraded by PaAP (words): incubated with PaAP overnight, LC–MS or MALDI; for P0 (parent peptide, LC–MS signal): 500 μM peptide, 1 μM PaAP_T
# T2 construct: PaAP (WT, residues 27–536); His6 (TEV cleavable) (N, cleaved yes); made in house; host or cells: E. coli SHuffle T7
# T2 sequence (Q02PA2 37-516 A513L/Q514V/S515P): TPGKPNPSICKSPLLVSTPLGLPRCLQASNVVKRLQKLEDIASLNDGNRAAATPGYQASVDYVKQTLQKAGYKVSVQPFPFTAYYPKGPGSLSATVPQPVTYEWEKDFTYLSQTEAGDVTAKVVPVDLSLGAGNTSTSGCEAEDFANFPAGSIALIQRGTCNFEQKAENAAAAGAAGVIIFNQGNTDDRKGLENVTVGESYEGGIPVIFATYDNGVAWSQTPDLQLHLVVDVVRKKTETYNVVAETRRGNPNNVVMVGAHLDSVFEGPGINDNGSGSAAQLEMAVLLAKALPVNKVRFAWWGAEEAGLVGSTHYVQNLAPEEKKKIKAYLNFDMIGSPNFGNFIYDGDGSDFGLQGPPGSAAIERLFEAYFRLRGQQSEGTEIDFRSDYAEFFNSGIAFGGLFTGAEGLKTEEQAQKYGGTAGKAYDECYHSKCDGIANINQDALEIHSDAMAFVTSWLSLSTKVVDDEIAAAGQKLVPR
# Procedure: A variety of peptides of varying lengths and compositions were incubated with PaAP at room temperature. Assays were performed by incubating (overnight at room temperature) 500 μM of substrate (peptides) with 1 μM enzyme (PaAP) in reaction buffer (50 mM Tris, pH 8.5, 100 mM NaCl). The reactions were quenched by heating to 100 °C for 10 min followed by centrifugation at 17,000g in a benchtop centrifuge to remove precipitate. Supernatant was collected and samples were analyzed by LC–MS. Initial trial assays were carried out in the presence and absence (control) of enzyme to determine if the substrate was degraded (single or triplicate experiments). Time-course assays were performed on selected peptide substrates in triplicate. A 300 μl reaction (including 500 μM of substrate) was initiated by the addition of 1 μM enzyme. The reaction was incubated at room temperature. The reaction was quenched at set timepoints by the removal of 30 μl aliquots, which were immediately heated to 100 °C for 10 min. The samples were analyzed by LC–MS using a Xevo Q-ToF (Waters) as described below, searching for masses of all peptide breakdown products.
# Peptide degradation time courses were fitted to exponential equations as follows:
# P0 peptide consumption was fitted to a single exponential equation (equation (2)) with the format2 yt=y0−Plateaue^−kt+Plateau
# Time courses for the formation and decay of peptide intermediates were fitted to double exponential equations (equation (3)) and single exponential equations, followed by a linear phase (4)3 yt=y0−Plateau1e^−k1t+y0−Plateau2e^−k2t+Plateau 4 yt=y0−Plateaue^−kt+vt+Plateau where y(t) is the product formed at time t, y0 − Plateau is the amplitude of the exponential phase, k is the observed rate constant for the exponential phase, y0 is the value of y at time 0, Plateau is the value of y after exponential phase, C is the offset and v is the slope of the linear phase.
# Peptide samples incubated in the presence and absence of PaAP were initially analyzed by MALDI. The peptide sample (0.5 µl at 10 µM) was spotted along with matrix (0.5 µl 10 mg ml^−1 α-cyano-4-hydroxycinnamic acid in ACN/0.1% TFA (50/50, vol/vol)) on a stainless steel MALDI plate and left to dry. The sample plate was loaded into a Sciex 4800 MALDI mass spectrometer. The laser voltage was adjusted to give a good signal to noise strength, and 50 shots were acquired in a random pattern across the spot and spectra combined. The spectra were externally calibrated with Sciex Pepcal mix (range: 500–4,000 m/z).
Substance,IC50 plot data (PaAP_T activity at given peptide concentration) ([1]; log(I) 0),IC50 plot data (PaAP_T activity at given peptide concentration) ([1]; log(I) 0.39794),IC50 plot data (PaAP_T activity at given peptide concentration) ([1]; log(I) 0.69897),IC50 plot data (PaAP_T activity at given peptide concentration) ([1]; log(I) 1),IC50 plot data (PaAP_T activity at given peptide concentration) ([1]; log(I) 1.39794),IC50 plot data (PaAP_T activity at given peptide concentration) ([1]; log(I) 1.69897),IC50 plot data (PaAP_T activity at given peptide concentration) ([1]; log(I) 2),IC50 plot data (PaAP_T activity at given peptide concentration) ([1]; log(I) 2.39794),IC50 plot data (PaAP_T activity at given peptide concentration) ([1]; log(I) -0.30103),IC50 plot data (PaAP_T activity at given peptide concentration) ([1]; log(I) -0.60206),IC50 plot data (PaAP_T activity at given peptide concentration) ([1]; log(I) -1),IC50 plot data (PaAP_T activity at given peptide concentration) ([1]; log(I) -1.30103),substrate of / degraded by PaAP (words) [2],further results
Ac-ERWGHDFIK: N-terminally acetylated ERWGHDFIK,14.1847 and 14.0241 and 15.9398,10.4257 and 10.2008 and 11.7831,7.759 and 8.43 and 9.606,6.157 and 6.578 and 7.803,4.438 and 4.522 and 4.703,3.468 and 3.7992 and 3.497,2.457 and 2.349 and 2.539,1.727 and 1.944 and 1.78,21.8755 and 21.5663 and 25.7068,31.9277 and 31.253 and 35.5141,57.8715 and 59.5181 and 63.1727,96.8273 and 103.173,is not a substrate,IC50 relative to unmodified linear ERWGHDFIK ([1]; Leu-pNA assay): stronger inhibitor (lower IC50)
ERLGHDFIK [… peptide with W replaced by L],–,–,–,–,–,–,–,–,–,–,–,–,–,"P0 (parent peptide, LC–MS signal) ([2]; time 0 minutes): 242839 and 266621 and 225820; P0 (parent peptide, LC–MS signal) ([2]; time 5 minutes): 120859 and 126339 and 82871.9; P0 (parent peptide, LC–MS signal) ([2]; time 10 minutes): 45005.2 and 53825.2 and 41072.7; P0 (parent peptide, LC–MS signal) ([2]; time 30 minutes): 28627.8 and 28689.7 and 21100.6; P0 (parent peptide, LC–MS signal) ([2]; time 60 minutes): 29596.5 and 28748.7 and 27907.5; P0 (parent peptide, LC–MS signal) ([2]; time 90 minutes): 29084.8 and 28644.1 and 25592.5; P0 (parent peptide, LC–MS signal) ([2]; time 120 minutes): 30548.5 and 27618.8 and 28168.1; P0 (parent peptide, LC–MS signal) ([2]; time 180 minutes): 31516.5 and 29951.1 and 28383.1; P0 (parent peptide, LC–MS signal) ([2]; time 1220 minutes): 25934 and 29596.2 and 25678.6; relative rate of degradation by PaAP ([2]; time-course assay, LC–MS): degraded at a faster rate than ERWGHDFIK"
ERWGHDFIK (head-to-tail): ERWGHDFIK peptide cyclized head-to-tail (head-to-tail cyclized),101.617 and 102.323 and 98.6769,100.735 and 102.44 and 95.9718,96.6774 and 96.207 and 104.322,101.558 and 102.323 and 97.1479,95.7365 and 95.8542 and 103.44,85.1514 and 85.6807 and 79.6236,68.1564 and 67.5684 and 61.9818,37.6478 and 35.5307 and 32.0024,93.6783 and 96.7951 and 93.6195,99.853 and 100.676 and 98.5004,98.7357 and 97.5007 and 102.499,86.6216 and 85.5631 and 74.2723,–,inhibition of PaAP_T ([1]; Leu-pNA assay): very poor inhibitors
"RYLGYL: casein-derived peptide (UniProt P02662 105-110, looked up, fragment) [reference compound]",–,–,–,–,–,–,–,–,–,–,–,–,capable of processing,–
